Earlier results, collected in paper PMC3466315.

Target: NifL 1-140 (Azotobacter vinelandii) (UniProt P30663)
Conditions: cited from earlier work

Sequence of NifL 1-140 (P30663 1-140): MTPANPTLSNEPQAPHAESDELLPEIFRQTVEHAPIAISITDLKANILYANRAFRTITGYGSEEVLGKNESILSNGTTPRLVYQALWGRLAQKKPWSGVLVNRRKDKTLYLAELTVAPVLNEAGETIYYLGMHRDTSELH

For NifL 1-140 (from UniProt P30663), the Kd is given as 150 nM.
